In patent publication US20260167721A1 (ABLEXIS, published 2026):

B1: CD3 × CD33-BspAb71 (bispecific antibody)
chain 1: EVQLVESGGGLVKPGGSLRLSCAASGFTFSSYSMNWVRQAPGKCLEWVSSISRSSSYIYYADSVKGRFTLSRDNAKNSLYLQMNSLRGEDTAIYYCGRDGKGAIFLDYWGQGTLVTVSSGGGGSGGGGSGGGGSGGGGSSYELTQPPSVSVSPGQTARITCSGDALPKKYAYWYQQKSGQAPVLVIYEDSKRPSGIPERFSGSSSGTMATLTISGAQVEDEADYYCYSTHSSGNHRVFGCGTKLTVLDKTHTCPPCPAPEFEGGPSVFLFPPKPKDTLMISRTPEVTCVVVDVSHEDPEVKFNWYVDGVEVHNAKTKPREEQYNSTYRVVSVLTVLHQDWLNGKEYKCKVSNKALPASIEKTISKAKGQPREPQVYTLPPCREEMTKNQVSLWCLVKGFYPSDIAVEWESNGQPENNYKTTPPVLDSDGSFFLYSKLTVDKSRWQQGNVFSCSVMHEALHNHYTQKSLSLSPGK
chain 2: EVQLVQSGAEVKKPGSSVKVSCKASGYTITDSNIHWVRQAPGQSLEWIGYIYPYNGGTDYNQKFKNRATLTVDNPTNTAYMELSSLRSEDTAFYYCVNGNPWLAYWGQGTLVTVSSASTKGPSVFPLAPSSKSTSGGTAALGCLVKDYFPEPVTVSWNSGALTSGVHTFPAVLQSSGLYSLSSVVTVPSSSLGTQTYICNVNHKPSNTKVDKRVEPKSCDKTHTCPPCPAPEFEGGPSVFLFPPKPKDTLMISRTPEVTCVVVDVSHEDPEVKFNWYVDGVEVHNAKTKPREEQYNSTYRVVSVLTVLHQDWLNGKEYKCKVSNKALPASIEKTISKAKGQPREPQVCTLPPSREEMTKNQVSLSCAVKGFYPSDIAVEWESNGQPENNYKTTPPVLDSDGSFFLVSKLTVDKSRWQQGNVFSCSVMHEALHNRFTQKSLSLSPGK
chain 3: DIQLTQSPSTLSASVGDRVTITCRASESLDNYGIRFLTWFQQKPGKAPKLLMYAASNQGSGVPSRFSGSGSGTEFTLTISSLQPDDFATYYCQQTKEVPWSFGQGTKVEVKRTVAAPSVFIFPPSDEQLKSGTASVVCLLNNFYPREAKVQWKVDNALQSGNSQESVTEQDSKDSTYSLSSTLTLSKADYEKHKVYACEVTHQGLSSPVTKSFNRGEC
B2: CD3 × CD33-BspAb66 (bispecific antibody, human IgG1, kappa)
chain: EVQLVESGGGLVQPGRSLRLSCAASGFTFDDYAMHWVRQAPGKGLEWVSGISWNSGSIGYADSVKGRFTISRDNAKNSLYLQMNSLRAEDTALYYCAKDSRGYGDYRLGGAYWGQGTLVTVSSGGGGSGGGGSGGGGSGGGGSEIVMTQSPATLSVSPGERATLSCRASQSVSSNLAWYQQKPGQAPRLLIYGASTRATGIPARFSGSGSGTEFTLTISSLQSEDFAVYYCQQYNNWPWTFGQGTKVEIKTSGPGGPDKTHTCPPCPAPEFEGGPSVFLFPPKPKDTLMISRTPEVTCVVVDVSHEDPEVKFNWYVDGVEVHNAKTKPREEQYNSTYRVVSVLTVLHQDWLNGKEYKCKVSNKALPASIEKTISKAKGQPREPQVYTLPPCREEMTKNQVSLWCLVKGFYPSDIAVEWESNGQPENNYKTTPPVLDSDGSFFLYSKLTVDKSRWQQGNVFSCSVMHEALHNHYTQKSLSLSPGK
heavy: B1 chain 2
light: B1 chain 3
B3: CD3 × CD33-BspAb38 (bispecific antibody)
chain 1: not shown
chain 2: B1 chain 2
chain 3: B1 chain 3
B4: CD3 × CD33-BspAb52 (bispecific antibody)
chain 1: not shown
chain 2: B1 chain 2
chain 3: B1 chain 3
B5: CD3 × CD33-BspAb37 (bispecific antibody)
chain 1: not shown
chain 2: B1 chain 2
chain 3: B1 chain 3
B6: CD3 × CD33-BspAb45 (bispecific antibody)
chain 1: EVQLVESGGGLVQPGGSLRLSCAASGFTFSRYSMNWVRQAPGKCLEWVSYISSSSSSIYYADSVKGRFTISRDNAKNSLYLQMNSLRDEDTAVYYCARDRRATLDYWGQGTLVTVSSGGGGSGGGGSGGGGSGGGGSNFMLTQPHSVSESPGKTVTISCTRSSGSIASNYVQWYQQRPGSSPTTVIYEDNQRPSGVPDRFSGSIDSSSNSASLTISGLKTEDEADYYCQSYDSSNHVFGCGTKLTVLDKTHTCPPCPAPEFEGGPSVFLFPPKPKDTLMISRTPEVTCVVVDVSHEDPEVKFNWYVDGVEVHNAKTKPREEQYNSTYRVVSVLTVLHQDWLNGKEYKCKVSNKALPASIEKTISKAKGQPREPQVYTLPPCREEMTKNQVSLWCLVKGFYPSDIAVEWESNGQPENNYKTTPPVLDSDGSFFLYSKLTVDKSRWQQGNVFSCSVMHEALHNHYTQKSLSLSPGK
chain 2: B1 chain 2
chain 3: B1 chain 3
B7: CD3 × CD33-BspAb51 (bispecific antibody)
chain 1: not shown
chain 2: B1 chain 2
chain 3: B1 chain 3
B8: CD3 × CD33-BspAb116 (bispecific antibody)
chain 1: NFMLTQPHSVSESPGKTVTISCTRSSGSIASNYVQWYQQRPGSSPTTVIYEDNQRPSGVPDRFSGSIDSSSNSASLTISGLKTEDEAYYYCQSFDSSNRVFGCGTKLTVLGGGGSGGGGSGGGGSGGGGSQVQLQESGPGLVKPSQTLSLTCTVSGGSISSGGYYWSWIRQHPGKCLEWIGYIYYSGSTYYNPSLKSRVTISVDTSKDQFSLKLSSVTAADTAVYYCARERKTSLPFDIWGQGTMVTVSSDKTHTCPPCPAPEFEGGPSVFLFPPKPKDTLMISRTPEVTCVVVDVSHEDPEVKFNWYVDGVEVHNAKTKPREEQYNSTYRVVSVLTVLHQDWLNGKEYKCKVSNKALPASIEKTISKAKGQPREPQVYTLPPCREEMTKNQVSLWCLVKGFYPSDIAVEWESNGQPENNYKTTPPVLDSDGSFFLYSKLTVDKSRWQQGNVFSCSVMHEALHNHYTQKSLSLSPGK
chain 2: B1 chain 2
chain 3: B1 chain 3

These binders were tested against T1, CD3 on human donor PBMC / Pan T effector cells (human, UniProt P07766 23-207; P09693 23-182; P04234 22-171; P20963 22-164) (assay: cell-based or functional assay).
T1 sequence (P07766 23-207, chain 1 of 4): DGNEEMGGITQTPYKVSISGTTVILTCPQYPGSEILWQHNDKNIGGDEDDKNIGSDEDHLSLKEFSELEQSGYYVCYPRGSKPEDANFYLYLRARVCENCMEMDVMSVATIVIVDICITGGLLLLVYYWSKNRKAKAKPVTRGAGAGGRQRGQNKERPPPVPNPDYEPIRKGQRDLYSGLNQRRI
T1 sequence (P09693 23-182, chain 2 of 4): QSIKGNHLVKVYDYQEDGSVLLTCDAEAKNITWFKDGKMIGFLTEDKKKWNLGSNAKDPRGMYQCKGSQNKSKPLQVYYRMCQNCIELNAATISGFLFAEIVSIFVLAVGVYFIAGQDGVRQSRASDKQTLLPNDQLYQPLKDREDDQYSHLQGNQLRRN
T1 sequence (P04234 22-171, chain 3 of 4): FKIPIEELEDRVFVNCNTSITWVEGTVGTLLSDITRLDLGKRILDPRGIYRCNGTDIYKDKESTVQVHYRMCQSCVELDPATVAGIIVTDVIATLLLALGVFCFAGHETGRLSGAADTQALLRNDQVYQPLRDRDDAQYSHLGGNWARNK
T1 sequence (P20963 22-164, chain 4 of 4): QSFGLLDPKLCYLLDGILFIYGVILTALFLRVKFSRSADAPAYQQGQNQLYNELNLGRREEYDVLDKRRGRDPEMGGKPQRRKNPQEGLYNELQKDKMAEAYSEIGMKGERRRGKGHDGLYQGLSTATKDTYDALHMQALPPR

Cytokine Release Assay (TNFα) Donor 0 gMFI max [gMFI]	Cytokine Release Assay (TNFα) Donor 1 gMFI max [gMFI]	Cytokine Release Assay (TNFα) Donor 2 EC50 [nM]	Cytokine Release Assay (TNFα) Donor 2 gMFI max [gMFI]	Cytokine Release Assay (TNFα) Donor 3 gMFI max [gMFI]	Cytokine Release Assay (TNFα) Donor 0 EC50 [nM]	Cytokine Release Assay (TNFα) Donor 3 EC50 [nM]	Cytokine Release Assay (TNFα) Donor 1 EC50 [nM]	Binder
44100	5470	0.396	16700	28200				B1
55800	5360	28.1	14000	28600	20.1	10.8		B2
28500	4840	4.03	10100	17900	6.01	5.95		B3
5510	4510	1.35	4800	5310		18.6		B4
48300	5610	0.0832	15800	31600	0.165	0.222		B5
71300	4850	0.0334	12100	31800	0.0919	0.0216		B6
51700	6200	0.18	14800	36200	0.203	0.166	0.535	B7
18000	4930	0.155	9080	13600	0.61	0.685		B8

Target: T1, CD3 on human donor PBMC / Pan T …
Assay: cell-based or functional assay
Remark: another data set of the same source

Cytokine Release Assay (IL2) Donor 0 EC50 [nM]	Cytokine Release Assay (IL2) Donor 0 gMFI max [gMFI]	Cytokine Release Assay (IL2) Donor 1 gMFI max [gMFI]	Cytokine Release Assay (IL2) Donor 2 EC50 [nM]	Cytokine Release Assay (IL2) Donor 2 gMFI max [gMFI]	Cytokine Release Assay (IL2) Donor 3 EC50 [nM]	Cytokine Release Assay (IL2) Donor 3 gMFI max [gMFI]	Cytokine Release Assay (IL2) Donor 1 EC50 [nM]	Binder
3.03	65500	24400	0.0725	30900	2.16	127000		B1
44.9	84700	31100	38.7	33700	49.8	95000	40.1	B2
6.63	39300	16200	1.73	19200	1.84	45900	2.87	B3
141	17200	14500		12800	3.87	18100	10.7	B4
0.18	69200	26800	0.141	34800	0.181	104000	0.437	B5
0.0539	50900	22200	0.0204	26200	0.0205	67900	0.0869	B6
0.181	105000	37800	0.205	27300	0.0995	156000	0.529	B7
0.45	23200	19000	0.0909	16800	0.198	27200	0.384	B8
